Assay results taken from publication PMC9684487, “Human antibody recognition and neutralization mode on the NTD and RBD domains of SARS-CoV-2 spike protein” (Scientific Reports, 2022).

B1: NIBIC-71 (antibody, V domains shown)
VH: EVQLVESGGGLIQPGGSLRLSCEASGLIVSSNYMTWVRQAPGKGLEWVSVIYSGGSTFYADSVKGRFTVSRDNSKNTLYLQMNNLSPEDTAVYYCARDLGPYGVDVWGQGTTVTVSS
VL: AIQLTQSPSSLSASVGDRVTITCRASQGISSYLAWYQQTPGKAPKLLIYAASTLQSGVPSRFSGSGSGTDFTLTISSLQPEDFATYYCQQLNSYPPFTFGPGTKVDIK
notes: also called recombinant mAb NIBIC-71
B2: 7G7/κ (antibody, V domains shown)
VH: QVQLVESGGGVVQPGRSLRLSCIASGFTFRNYAMYWVRQAPGKGLEWVAVIWYDGSNKFYTDSVKGRFTISRDNSKNSLYLQMNSLRAEDTAVYFCARDQGFGDNYYYYGMDVWGQGTTVTVSS
VL: SYELTQPPSVSVSPGQTARISCSGDALPKEYAYWYQQKPGQAPVLVIYKDSERPSGIPERFSGSSSGTTVTLTISGVQAEDEADYYCQLADSSMHYVVFGGGTKLTVL
notes: also called 7G7-IgG1κ; 7G7/κ (IgG1/Igκ); source: Expi293F, cotransfected with IgH and IgL vectors, purified (HiTrap Protein G)

Target: T1, S protein trimer with D614G mutation (SARS-CoV-2, D614G, D614G)
T1 construct: also called Spike; homotrimeric S protein
Assay: cryo-EM structure
Conditions: both partners purified

Binder | stoichiometry N [Fabs per S protein trimer]
B1 | 2
B2 | 3
